Test results reported in paper PMC4822050, “Hemi-methylated DNA opens a closed conformation of UHRF1 to facilitate its histone recognition” (Nature Communications, 2016).

B1: Spacer of UHRF1 (residues 587–674) [human] / TTD of UHRF1 (residues 134–285) [human] (parent)
chain 1: PGPWTKEGKDRIKKLGLTMQYPEGYLEALANREREKENSKREEEEQQEGGFASPRTGKGKWKRKSAGGGPSRAGSPRRTSKKTKVEPY
chain 2: LYKVNEYVDARDTNMGAWFEAQVVRVTRKAPSRDEPCSSTSRPALEEDVIYHVKYDDYPENGVVQMNSRDVRARARTIIKWQDLEVGQVVMLNYNPDNPKERGFWYDAEISRKRETRTARELYANVVLGDDSLNDCRIIFVDEVFKIERPGE

Variants of: B1
Test: ITC
Details: with TTD of UHRF1 (residues 134–285) [human]; Cell: Spacer; Sy: TTD

chain 1 PGPWTKEGKDRIKKLGLTMQYPEGYLEALANREREKENSKREEEEQQEGGFASPRTGKGKWKAKSAGGGPSRAGSPRRTSKKTKVEPY [chain 1 R63A] was tested. Which Kd did it give?
Its Kd is 21.4 µM.

With chain 1 PGPWTKEGKDRIKKLGLTMQYPEGYLEALANREREKENSKREEEEQQEGGFASPRTGKGKWDRKSAGGGPSRAGSPRRTSKKTKVEPY [chain 1 K62D] as the variant, how does the Kd read?
The Kd was 5.94 µM.

For chain 1 PGPWTKEGKDRIKKLGLTMQYPEGYLEALANREREKENSKREEEEQQEGGFADPRTGKGKWKRKSAGGGPSRAGSPRRTSKKTKVEPY [chain 1 S53D], which Kd is on record?
The Kd was 1.15 µM.

chain 1 PGPWTKEGKDRIKKLGLTMQYPEGYLEALANREREKENSKREEEEQQEGGFASPRTGKGKWKRKSAGGGPSRAGSPRRTDKKTKVEPY [chain 1 S80D] was tested. Which Kd did it give?
The Kd was 1.26 µM.
